Read-outs that look alike come from different tables or passages of the source. Square brackets hold non-standard residues; d marks the D form. Ends that are not written are not given here. LTF = trifluoroleucine

Series [1] in a line: Confocal microscopy of CCM-bound fibers. It is filed as physicochemical. As to conditions: 50 μM protein saturated with CCM, pH 4.0. As to the method:
Confocal Microscopy. Protein bound to CCM was studied by measuring 50 μM protein samples saturated with CCM as determined by fluorescent spectroscopic drug binding with a final 1% v/v DMSO (or 2×Kd). 10 μL of protein was added to a micro slide and a 22×22 mm #1 microscope cover glass. Slides were inverted and imaged using a Leica TCS SP8 X Laser Confocal Microscope using a dry 10× objective at RT. CCM was excited using a 460 nm line of the laser, and images were taken using a 470 to 550 nm detection window.
Confocal Microscopy. Q2LTF was diluted to 50 μM and saturated with 40 μM of curcumin (solubilized in DMSO) as determined by the binding affinity in drug-binding experiments. […] 5 μL of sample was deposited onto a microslide and covered with a 22×22 mm #1 microscope cover glass. Images were taken with a Leica TCS SP8 X laser confocal microscope using a dry 10× objective at RT. Samples were excited at 460 nm and images were taken with a 470-550 nm detection window.

The nature of series [2]: CD temperature scans (melting temperature). It is filed as physicochemical. As to the method:
Circular Dichroism Spectroscopy. Secondary structure was first assessed using the Jasco J-815 CD spectrometer with a PTC-423S single position Peltier temperature control system. Wavelength scans were performed from 190 to 250 nm using 15 μM samples at 1 nm step sizes at 25° C. Temperature scans were performed at α-helical minimum 222 nm from 20 to 85° C. The mean residue ellipticity (MRE) was calculated as described previously. MRE at 222 nm and 208 nm and their ratios were used to assess relative helicity.
Circular Dichroism Spectroscopy. The secondary structure of Q2LTF and QLTF was assessed using a Jasco J-815 circular dischroism (CD) spectrometer with a PTC-423S single position Peltier temperature control system. Wavelength scans were performed from 195 to 250 nm at 1 nm step sizes by diluting the protein into water (at approximately 10 μM) in order to minimize the effects of sodium chloride. […] The mean residue ellipticity (MRE) was calculated as described.

A short description of a further series: TEM of protein fibers. The conditions noted are these: fibers, 50 mM NaH2PO4 pH 4.0. In kind it is physicochemical. As to the method:
Transmission Electron Microscopy. Transmission electron microscopy (TEM) images were taken with a FEI Talos L120C transmission electron microscope. Protein fiber samples were diluted to 50 μM and 3 μL was spotted on Formvar/carbon-coated copper grids followed by 5 μL wash with water, and 3 μL staining with 1% v/v uranyl acetate solution each with incubation times of 1 min at RT. Fibrils were sized in ImageJ software (Version 1.52q).
Transmission Electron Microscopy. Transmission electron microscopy (TEM) images were taken with a FEI Talos L120C transmission electron microscope. Samples were diluted to 50 μM and 3 μL was spotted on Formvar/carbon-coated copper grids followed by a 5 μL wash with water, and 3 μL staining with 1% v/v uranyl acetate solution each with incubation times of 1 min. Between steps, filter paper was used to wick the grids. Following imaging, fibrils were sized in ImageJ software (Version 1.52q).

Series [3] in a line: ATR-FTIR peak deconvolution of secondary structure. In kind it is physicochemical. As to the method: Attenuated Total Reflectance-Fourier Transform Infrared Spectroscopy. Secondary structure of protein fiber variants was confirmed using attenuated total reflectance-Fourier transform infrared (ATR-FTIR) spectroscopy using the Nicolet 6700 Fourier Transform Infrared Spectrometer equipped with a diamond ATR accessory and a mercury cadmium telluride (MCT)-A detector. Spectra were collected for 5 μL of 500 μM protein from 4000-400 cm^−1 with 0.5 cm^−1 increments at room temperature (RT). For CCM bound protein, protein was bound at a final concentration of 500 μM and saturated with CCM as determined by fluorescent spectroscopic drug binding with a final 1% v/v DMSO. Sample spectra were normalized using buffer background and analyzed from 1700-1600 cm^−1 corresponding to the amide I region. Peaks were deconvoluted using Gaussian functions in PeakFit software until the goodness of fit reached r^2≥0.99. Peaks were associated with secondary structure were determined by methods known in the art.
(§1) Attenuated Total Reflectance-Fourier Transform Infrared Spectroscopy. Secondary structure of Q2 protein was confirmed using attenuated total reflectance-Fourier transform infrared (ATR-FTIR) spectroscopy using the Nicolet 6700 Fourier Transform Infrared Spectrometer equipped with a diamond ATR accessory and a mercury cadmium telluride (MCT)-A detector. Spectra were collected for 5 μL of 2 mM protein from 4000-400 cm^−1 with 0.5 cm^−1 increments. Sample spectra were normalized using buffer background and analyzed from 1700-1600 cm^−1 corresponding to the amide I region. Peaks were deconvoluted using Gaussian functions in PeakFit software until the goodness of fit reached r^2>0.99.
as §1, with “of Q2LTF and QLTF” for “of Q2”, “using a” for “using the”, “of 1” for “of 2”, “with 4.0” for “with 0.5”, “reached r^2≥0.99.” for “reached r^2>0.99.”
Attenuated Total Reflectance-Fourier Transform Infrared Spectroscopy. Secondary structure before (solution) and after gelation (gel) was also assessed by peak deconvolution of attenuated total reflectance-Fourier transform infrared (ATR-FTIR) spectra. ATR-FTIR measurements were performed using a Nicolet 6700 Fourier Transform Infrared Spectrometer equipped with a mercury cadmium telluride (MCT)-A detector. Spectra were collected for 5 μL samples of protein at 2 mM from 4000-400 cm^−1 with a 4.0 cm^−1 resolution, normalized, and buffer-subtracted prior to analysis from 1700-1600 cm^−1, corresponding to the amide I region. ATR-FTIR measurements were performed immediately after concentration to 2 mM for solution measurements and after. Peaks were deconvoluted using Gaussian functions in PeakFit software until the goodness of fit reached r^2≥0.99.

The conditions of series [4]: previous studies, cited from earlier work.

On to “C2: C variant with redistributed electrostatic patches, SEQ ID NO: 22 (MRGSHHHHHHGSIEGRMQLAKHMLKELQKTNALQSVRTLLQQQVEEITQLKETVENSDSS) [Protein C2]”, for which the “fiber diameter after CCM binding (confocal)” value in series [1] amounted to 6.89±2.54 μm. The melting temperature came to 69.6±7.8 °C in series [2] (CCM-bound, pH 4.0) and 49.4±1.1 °C in series [2] (native, 50 mM NaH2PO4 pH 4.0). In addition, the “average protein fiber diameter (TEM)” value in the series “TEM of protein fibers” turned out to be 73±18 nm. For the same molecule, the values for the aggregated strands in series [3] (native) and in series [3] (w/CCM) were 5.3% and 9.0%, respectively. Further, the “antiparallel β-sheet/aggregated strands” value was 15.0% in series [3] (native) and 4.8% in series [3] (w/CCM).

As for “QLTF: Q with leucines replaced by trifluoroleucine, SEQ ID NO: 19 (MRGSHHHHHHGSIEGRVKEITF[LTF]KNTAPQM[LTF]RE[LTF]QETNAA[LTF]QDVRE[LTF][LTF]RQQSK[LTF]; ends and bridges not checked) [reference compound]”, the melting temperature in series [4] was 52 °C. Besides, in series [3] (fluorinated constructs, Tris buffer), the “aggregated strands” value worked out at 17.4 % composition.

B1: C: cartilage oligomeric matrix protein coiled-coil with His tag, SEQ ID NO: 21 (protein)
chain: MRGSHHHHHHGSIEGRAPQMLRELQETNAALQDVRELLRQQVKEITFLKNTVMESDASGKL
modifications: His tag
As to B1, the “fiber diameter after CCM binding (confocal)” value in series [1] stood at 4.91±1.49 μm. The melting temperature is 41-42 °C in series [4] (Na2HPO4 pH 8.0); 51.8±4.3 °C in series [2] (CCM-bound, pH 4.0); 56.0±2.6 °C in series [2] (native, 50 mM NaH2PO4 pH 4.0). Moreover, the “average protein fiber diameter (TEM)” value in “TEM of protein fibers” was 47±22 nm. In addition, the aggregated strands in series [3] (native) worked out at 10.0%; in series [3] (w/CCM), 20.8%. Moreover, the “antiparallel β-sheet/aggregated strands” value came out at 11.5% in series [3] (native) and 0.0% in series [3] (w/CCM).

The values above are taken from patent US20240115742A1, “FLUORINATED FIBERS FOR MULTIMODAL 1H AND 19F MRI, ULTRASOUND, FLUORESCENCE DETECTION AND CONFORMATIONAL AND TEMPERATURE DETECTION BY 19F MRS” (New York University, priority 2022, published 2024).
